Results taken from the supplement of paper PMC10065799, “High-throughput profiling of sequence recognition by tyrosine kinases and SH2 domains using bacterial peptide display” (eLife, 2023).
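Also: 11-residue human phosphosite peptides and single-mutation variants displayed on the E. coli surface, counted by deep sequencing, each peptide's frequency after selection divided by its frequency in the unselected input library; frequency after pTyr selection over input frequency; kinase dosed for 20-30% of maximal phosphorylation in three min.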

These sequences were tested on c-Abl (mouse) (assay: phosphorylation enrichment, bacterial display (enrichment ratio); higher = better substrate or ligand; peptides without Tyr show the background).
In the case of HDRGNYVQLNM [RECQL4_Y353_R355Q], the phosphorylation enrichment was 0.552. Work on QGIIIYRAAYF [SLC25A4_Y187] yielded a phosphorylation enrichment of 1.28. With LKDEDYLKDTV [HAUS3_Y582_I586T] the phosphorylation enrichment was 1.37. In the case of EGLKVYVNGTL [ADGRD1_Y183], the phosphorylation enrichment was 0.848. In the case of PLRADYLIARV [HLCS_Y635], the phosphorylation enrichment was 0.853. DRLASYLDKAR [KRT14_Y129_V133A] showed a phosphorylation enrichment of 0.914. GRLPEYNTPIA [CCDC151_Y542_R545P] gave a phosphorylation enrichment of 0.716. Work on SSQILYKLEQS [THADA_Y701_V699I] yielded a phosphorylation enrichment of 0.551. For EEKSCYILHSS [PATJ_Y783_E780K], the phosphorylation enrichment was 0.779. LEDEVCAQKMK [TPM2_Y261_Y261C] showed a phosphorylation enrichment of 1.2. Sequence TFLRTYTDTMQ [TSPAN7_Y124_A127T] has a phosphorylation enrichment of 0.69. SKKSTYRALLD [GANC_Y43_Q44R] was tested, and the phosphorylation enrichment was 0.447. QLHREYCLSPR [HJURP_Y445] showed a phosphorylation enrichment of 1.13. TLNVRYESVQA [CEACAM7_Y236] showed a phosphorylation enrichment of 0.504. SNKLHYQLEQE [PDPR_Y110_Y109H] gave a phosphorylation enrichment of 0.647. For GREAEYSEKHG [EPHB4_Y574_D576E], the phosphorylation enrichment was 0.631. Work on AEPTGYSAELS [EZR_Y499] yielded a phosphorylation enrichment of 0.799. VHSGTYQVTVR [MYBPC3_Y1043] showed a phosphorylation enrichment of 0.442. For PYAEPYADYGG [APBA1_Y187_S184A], the phosphorylation enrichment was 1.82. For ARTNEYKIIRS [INA_Y87_T92S], the phosphorylation enrichment was 0.337. FFHCTYKQRMI [CLEC12A_Y242_K244Q_YF] gave a phosphorylation enrichment of 0.85. HVIKFYGACSQ [RET_Y791_L790F] showed a phosphorylation enrichment of 1.4. In the case of ANNPLYKEATS [ITGB3_Y773], the phosphorylation enrichment was 0.635. In the case of KLKNAYEESLE [MYH7_Y1488], the phosphorylation enrichment was 0.743. EFENSYIFDIN [GAB1_Y83] gave a phosphorylation enrichment of 0.501. Work on LQIPMYEVQWK [KIT_Y553_K550I] yielded a phosphorylation enrichment of 1.01. Sequence PELINYHQHYS [BTK_Y361_N365Y] has a phosphorylation enrichment of 0.563. WQQQSYLASGI [CTNNB1_Y30_D32A] showed a phosphorylation enrichment of 0.686. For CKLCQYYLDHL [ATRX_Y1849_Y1847C], the phosphorylation enrichment was 0.593. In the case of HKLSYCEYDFE [BTK_Y40_Y40C], the phosphorylation enrichment was 0.871. In the case of NELTYYCYKKD [CD59_Y87_C89Y], the phosphorylation enrichment was 5.45. PVGDVYKKKGL [NMNAT1_Y55_A54V] gave a phosphorylation enrichment of 0.417. Sequence DAANNYARGHF [TUBA3E_Y103_S101N_YF] has a phosphorylation enrichment of 1.06.

The sequences below were run against FGFR3 (UniProt P22607) in the same assay as above.
Sequence of FGFR3 (P22607 whole entry, looked up): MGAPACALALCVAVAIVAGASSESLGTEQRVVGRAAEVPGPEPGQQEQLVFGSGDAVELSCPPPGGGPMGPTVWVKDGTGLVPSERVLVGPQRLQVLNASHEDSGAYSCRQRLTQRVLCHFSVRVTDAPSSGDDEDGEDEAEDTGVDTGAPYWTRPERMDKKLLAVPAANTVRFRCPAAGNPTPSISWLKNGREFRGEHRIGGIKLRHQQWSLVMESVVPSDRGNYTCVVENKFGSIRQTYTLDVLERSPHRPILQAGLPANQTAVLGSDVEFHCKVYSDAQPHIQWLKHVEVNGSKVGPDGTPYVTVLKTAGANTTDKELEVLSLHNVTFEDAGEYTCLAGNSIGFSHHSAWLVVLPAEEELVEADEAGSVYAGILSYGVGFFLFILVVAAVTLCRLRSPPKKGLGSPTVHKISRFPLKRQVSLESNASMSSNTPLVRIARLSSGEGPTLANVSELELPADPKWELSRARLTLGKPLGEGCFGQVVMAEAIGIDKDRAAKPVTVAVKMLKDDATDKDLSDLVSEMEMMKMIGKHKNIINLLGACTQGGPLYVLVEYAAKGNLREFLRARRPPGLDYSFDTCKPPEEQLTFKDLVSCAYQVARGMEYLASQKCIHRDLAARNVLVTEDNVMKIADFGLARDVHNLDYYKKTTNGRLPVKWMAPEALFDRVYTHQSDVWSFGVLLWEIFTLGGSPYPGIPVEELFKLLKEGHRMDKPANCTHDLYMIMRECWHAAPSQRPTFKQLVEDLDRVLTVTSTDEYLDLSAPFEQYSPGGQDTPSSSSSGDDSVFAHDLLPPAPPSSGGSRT
HDRGNYVQLNM [RECQL4_Y353_R355Q] gave a phosphorylation enrichment of 1.35. QGIIIYRAAYF [SLC25A4_Y187] was tested, and the phosphorylation enrichment was 1.39. Work on LKDEDYLKDTV [HAUS3_Y582_I586T] yielded a phosphorylation enrichment of 1.63. Work on EGLKVYVNGTL [ADGRD1_Y183] yielded a phosphorylation enrichment of 1.05. For PLRADYLIARV [HLCS_Y635], the phosphorylation enrichment was 0.495. DRLASYLDKAR [KRT14_Y129_V133A] gave a phosphorylation enrichment of 0.45. GRLPEYNTPIA [CCDC151_Y542_R545P] was tested, and the phosphorylation enrichment was 0.397. SSQILYKLEQS [THADA_Y701_V699I] showed a phosphorylation enrichment of 0.582. Sequence EEKSCYILHSS [PATJ_Y783_E780K] has a phosphorylation enrichment of 0.704. Sequence LEDEVCAQKMK [TPM2_Y261_Y261C] has a phosphorylation enrichment of 1.16. TFLRTYTDTMQ [TSPAN7_Y124_A127T] gave a phosphorylation enrichment of 0.497. Work on SKKSTYRALLD [GANC_Y43_Q44R] yielded a phosphorylation enrichment of 0.348. QLHREYCLSPR [HJURP_Y445] gave a phosphorylation enrichment of 0.733. TLNVRYESVQA [CEACAM7_Y236] gave a phosphorylation enrichment of 0.617. In the case of SNKLHYQLEQE [PDPR_Y110_Y109H], the phosphorylation enrichment was 0.673. In the case of GREAEYSEKHG [EPHB4_Y574_D576E], the phosphorylation enrichment was 0.544. AEPTGYSAELS [EZR_Y499] gave a phosphorylation enrichment of 0.636. In the case of VHSGTYQVTVR [MYBPC3_Y1043], the phosphorylation enrichment was 0.391. In the case of PYAEPYADYGG [APBA1_Y187_S184A], the phosphorylation enrichment was 1.76. ARTNEYKIIRS [INA_Y87_T92S] gave a phosphorylation enrichment of 0.406. For FFHCTYKQRMI [CLEC12A_Y242_K244Q_YF], the phosphorylation enrichment was 0.752. In the case of HVIKFYGACSQ [RET_Y791_L790F], the phosphorylation enrichment was 1.08. Work on ANNPLYKEATS [ITGB3_Y773] yielded a phosphorylation enrichment of 0.379. Sequence KLKNAYEESLE [MYH7_Y1488] has a phosphorylation enrichment of 0.612. EFENSYIFDIN [GAB1_Y83] gave a phosphorylation enrichment of 0.695. Sequence LQIPMYEVQWK [KIT_Y553_K550I] has a phosphorylation enrichment of 0.848. For PELINYHQHYS [BTK_Y361_N365Y], the phosphorylation enrichment was 0.585. Sequence WQQQSYLASGI [CTNNB1_Y30_D32A] has a phosphorylation enrichment of 0.533. In the case of CKLCQYYLDHL [ATRX_Y1849_Y1847C], the phosphorylation enrichment was 0.613. HKLSYCEYDFE [BTK_Y40_Y40C] gave a phosphorylation enrichment of 1.34. NELTYYCYKKD [CD59_Y87_C89Y] gave a phosphorylation enrichment of 1.98. In the case of PVGDVYKKKGL [NMNAT1_Y55_A54V], the phosphorylation enrichment was 0.915. DAANNYARGHF [TUBA3E_Y103_S101N_YF] gave a phosphorylation enrichment of 0.403.
